B1: KIF20A 25–665 (domain or fragment, mouse, UniProt P97329 25-665, looked up)
chain: ESTAADLRSVVRKDLLSDCSVISASLEDKQALLEDTSEKVKVYLRIRPFLTSELDRQEDQGCVCIENTETLVLQAPKDSFALKSNERGVGQATHKFTFSQIFGPEVGQVAFFNLTMKEMVKDVLKGQNWLIYTYGVTNSGKTYTIQGTSKDAGILPQSLALIFNSLQGQLHPTPDLKPLLSNEVIWLDSKQIRQEEMKKLSLLIGGLQEEELSTSVKKRVHTESRIGASNSFDSGVAGLSSTSQFTSSSQLDETSQLWAQPDTVPVSVPADIRFSVWISFFEIYNELLYDLLEPPSHQHKRQTLRLCEDQNGNPYVKDLNWIHVRDVEEAWKLLKVGRKNQSFASTHMNQQSSRSHSIFSIRILHLQGEGDIVPKISELSLCDLAGSERCKHQKSGERLKEAGNINTSLHTLGRCIAALRQNQQNRSKQNLIPFRDSKLTRVFQGFFTGRGRSCMIVNVNPCASTYDETLHAAKFSALASQLVHAPPVHLGIPSLHSFIKKHSPQVGPGLEKEDKADSDLEDSPEDEADVSVYGKEELLQVVEAMKALLLKERQEKLQLEIQLREEICNEMVEQMQQREQWCSERLDNQKELMEELYEEKLKILKESLTTFYQEQIQERDEKIEELETLLQEAKQQPAAQQ
notes: source: E. coli NiCO21 (DE3), purified (chitin resin, HisTrap HP, size-exclusion chromatography)
B2: KIF20A 1–665 (His-tagged dimeric motor construct) (domain or fragment, mouse, UniProt P97329 1-665, looked up)
chain: MSHRILSPPAGLLSDEDVVDSPILESTAADLRSVVRKDLLSDCSVISASLEDKQALLEDTSEKVKVYLRIRPFLTSELDRQEDQGCVCIENTETLVLQAPKDSFALKSNERGVGQATHKFTFSQIFGPEVGQVAFFNLTMKEMVKDVLKGQNWLIYTYGVTNSGKTYTIQGTSKDAGILPQSLALIFNSLQGQLHPTPDLKPLLSNEVIWLDSKQIRQEEMKKLSLLIGGLQEEELSTSVKKRVHTESRIGASNSFDSGVAGLSSTSQFTSSSQLDETSQLWAQPDTVPVSVPADIRFSVWISFFEIYNELLYDLLEPPSHQHKRQTLRLCEDQNGNPYVKDLNWIHVRDVEEAWKLLKVGRKNQSFASTHMNQQSSRSHSIFSIRILHLQGEGDIVPKISELSLCDLAGSERCKHQKSGERLKEAGNINTSLHTLGRCIAALRQNQQNRSKQNLIPFRDSKLTRVFQGFFTGRGRSCMIVNVNPCASTYDETLHAAKFSALASQLVHAPPVHLGIPSLHSFIKKHSPQVGPGLEKEDKADSDLEDSPEDEADVSVYGKEELLQVVEAMKALLLKERQEKLQLEIQLREEICNEMVEQMQQREQWCSERLDNQKELMEELYEEKLKILKESLTTFYQEQIQERDEKIEELETLLQEAKQQPAAQQ
notes: source: E. coli NiCO21 (DE3), purified (chitin resin, HisTrap HP, size-exclusion chromatography); not shown: His6, C-terminal, kept
B3: KIF20A 55–665 (domain or fragment, mouse, UniProt P97329 55-665, looked up)
chain: ALLEDTSEKVKVYLRIRPFLTSELDRQEDQGCVCIENTETLVLQAPKDSFALKSNERGVGQATHKFTFSQIFGPEVGQVAFFNLTMKEMVKDVLKGQNWLIYTYGVTNSGKTYTIQGTSKDAGILPQSLALIFNSLQGQLHPTPDLKPLLSNEVIWLDSKQIRQEEMKKLSLLIGGLQEEELSTSVKKRVHTESRIGASNSFDSGVAGLSSTSQFTSSSQLDETSQLWAQPDTVPVSVPADIRFSVWISFFEIYNELLYDLLEPPSHQHKRQTLRLCEDQNGNPYVKDLNWIHVRDVEEAWKLLKVGRKNQSFASTHMNQQSSRSHSIFSIRILHLQGEGDIVPKISELSLCDLAGSERCKHQKSGERLKEAGNINTSLHTLGRCIAALRQNQQNRSKQNLIPFRDSKLTRVFQGFFTGRGRSCMIVNVNPCASTYDETLHAAKFSALASQLVHAPPVHLGIPSLHSFIKKHSPQVGPGLEKEDKADSDLEDSPEDEADVSVYGKEELLQVVEAMKALLLKERQEKLQLEIQLREEICNEMVEQMQQREQWCSERLDNQKELMEELYEEKLKILKESLTTFYQEQIQERDEKIEELETLLQEAKQQPAAQQ
notes: as for B1

Molecular target: the molecule itself
Experiment: SEC-MALS; 5 mg ml^-1 of each protein injected into a Superdex 200 10/30 Increase column; MALS and refractive index

Stoichiometry N, 2:
B1
B2
B3

Source: publication PMC10508983, “Nucleotide-free structures of KIF20A illuminate atypical mechanochemistry in this kinesin-6” (Open Biology, 2023)
